Here are results for nine molecules from patent publication US20160264960A1 (Chugai, published 2016).

The target in experiment [1] is T1, soluble human IL-6R (human, UniProt P08887 20-357).
T1 construct: Analyte in the Octet experiments; also called hIL-6R; soluble hIL-6R
T1 sequence: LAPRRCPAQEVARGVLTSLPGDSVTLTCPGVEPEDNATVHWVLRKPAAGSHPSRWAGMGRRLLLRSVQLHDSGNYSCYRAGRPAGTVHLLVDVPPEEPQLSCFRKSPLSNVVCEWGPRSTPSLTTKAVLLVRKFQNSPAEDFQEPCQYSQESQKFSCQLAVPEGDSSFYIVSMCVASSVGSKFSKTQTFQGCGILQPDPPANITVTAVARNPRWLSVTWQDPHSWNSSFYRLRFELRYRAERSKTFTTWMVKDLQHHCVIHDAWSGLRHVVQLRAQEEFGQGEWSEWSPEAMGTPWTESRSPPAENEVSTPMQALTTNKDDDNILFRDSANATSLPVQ
Briefly: biolayer interferometry (Octet RED384), antibody on Protein G biosensor, soluble human IL-6R in solution, 120 s association and 120 s dissociation [a]. Here is the method:
(§1) Each antibody (6RNH-2_02, 6RNH-2_37, 6RNH-3(2)_32, and 6RNH-2_42) obtained in the paragraph (4-1) was evaluated for its binding activity against soluble human IL-6R using Octet RED384 (forteBIO). The binding evaluation was conducted using HBS-EP+ Buffer (GE Healthcare Japan Corp.) as a buffer.
(§2) After binding of the antibody to Protein G Biosensors (forteBIO), soluble human IL-6R was allowed to interact with the antibody on the biosensor through contact therebetween for 120 seconds, and subsequently contacted with the buffer for 120 seconds to measure the antibody-antigen interaction. Then, the biosensor was regenerated through contact with 10 mmol/L glycine-HCl (pH 1.5). The measurement was conducted at 30° C.

Experiment [2] addresses T1, soluble human IL-6R. In words: biolayer interferometry (Octet RED384), antibody on Protein G biosensor, soluble human IL-6R in solution, 120 s association and 120 s dissociation [b]. Here is the method:
as §1, §2
(In general: Biolayer interferometry detects binding as a change in optical thickness at a sensor tip.)

Experiment [3] addresses T1, soluble human IL-6R. In words: biolayer interferometry (Octet RED384), antibody on Protein G biosensor, soluble human IL-6R in solution, 120 s association and 120 s dissociation [c]. As for the experimental part:
as §1, §2

The target in experiment [4] is T2, mouse IgA (mouse, UniProt P01878 114-344).
T2 sequence (looked up): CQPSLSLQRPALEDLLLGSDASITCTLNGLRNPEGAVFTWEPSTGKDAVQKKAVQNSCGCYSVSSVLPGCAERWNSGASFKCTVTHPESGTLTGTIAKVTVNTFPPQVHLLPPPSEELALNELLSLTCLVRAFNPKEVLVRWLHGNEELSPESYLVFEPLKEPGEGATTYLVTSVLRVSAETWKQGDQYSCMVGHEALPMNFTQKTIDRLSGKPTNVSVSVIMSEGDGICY
Briefly: biolayer interferometry (Octet RED384), antibody on Protein G biosensor, mouse IgA in solution; antigen concentration not given [a]. As for the experimental part: (§3) Each antibody (6RmIAB3(2)_02, 6RmIAB3(2)_06, and 6RmIAB3(2)_16) obtained in the paragraph (6-2) or an anti-mouse IgA antibody mIANMIgL_095 (heavy chain: SEQ ID NO: 41; light chain: SEQ ID NO: 65) was evaluated for its binding activity against soluble human IL-6R and mouse IgA using Octet RED384 (forteBIO). The binding evaluation was conducted using HBS-EP+Buffer (GE Healthcare Japan Corp.) as a buffer.
(§4) After binding of the antibody to Protein G Biosensors (forteBIO), soluble human IL-6R or mouse IgA was allowed to interact with the antibody on the biosensor through contact therebetween for 120 seconds, and subsequently contacted with the buffer for 120 seconds to measure the antibody-antigen interaction. Then, the biosensor was regenerated through contact with 10 mmol/L glycine-HCl (pH 1.5). The measurement was conducted at 30° C.

Experiment [5] addresses T1, soluble human IL-6R. Briefly: biolayer interferometry (Octet RED384), antibody on Protein G biosensor, soluble human IL-6R in solution, 120 s association and 120 s dissociation [a]. Here is the method:
as §3, §4
The source holds these as a separate data set.

Experiment [6] concerns the target T1, soluble human IL-6R. Briefly: biolayer interferometry (Octet RED384), antibody on Protein G biosensor, soluble human IL-6R in solution; antigen concentration not given [d]. As for the experimental part:
as §3, §4

Experiment [7] has as its target T1, soluble human IL-6R. Briefly: biolayer interferometry (Octet RED384), antibody on Protein G biosensor, soluble human IL-6R in solution, 120 s association and 120 s dissociation [b]. Here is the method: as §3, §4
The source holds these as a separate data set.

For experiment [8], the target named is T2, mouse IgA. Briefly: biolayer interferometry (Octet RED384), antibody on Protein G biosensor, mouse IgA in solution; antigen concentration not given [b]. As for the experimental part: as §3, §4
Experiment [9] has as its target T3, soluble human plexin A1 (human, UniProt Q9UIW2 27-1244).
T3 construct: also called hPlexin A1; human Plexin A1 extracellular region
Briefly: biolayer interferometry (Octet RED384), antibody on Protein G biosensor, soluble human plexin A1 in solution; antigen concentration not given [a]. As for the experimental part:
(§5) The binding evaluation was conducted using HBS-EP+Buffer (GE Healthcare Japan Corp.) as a buffer.
(§6) After binding of the antibody to Protein G Biosensors (forteBIO), soluble human IL-6R or soluble human plexin A1 was allowed to interact with the antibody on the biosensor through contact therebetween for 120 seconds, and subsequently contacted with the buffer for 120 seconds to measure the antibody-antigen interaction. Then, the biosensor was regenerated through contact with 10 mmol/L glycine-HCl (pH 1.5). The measurement was conducted at 30° C.

Experiment [10] has as its target T1, soluble human IL-6R. Briefly: biolayer interferometry (Octet RED384), antibody on Protein G biosensor, soluble human IL-6R in solution, 120 s association and 120 s dissociation [a]. Here is the method: as §5, §6
The source holds these as a separate data set.

Experiment [11] concerns the target T3, soluble human plexin A1. Briefly: biolayer interferometry (Octet RED384), antibody on Protein G biosensor, soluble human plexin A1 in solution, 120 s association and 120 s dissociation [b]. As for the experimental part:
as §5, §6

Experiment [12] addresses T1, soluble human IL-6R. In words: biolayer interferometry (Octet RED384), antibody on Protein G biosensor, soluble human IL-6R in solution; antigen concentration not given [b]. Here is the method: as §5, §6
The target in experiment [13] is human CD3e (hCD3e) extracellular region with FLAG tag (human, UniProt P07766 22-129). Briefly: biolayer interferometry (Octet RED384), antibody on Protein G biosensor, human CD3e in solution; antigen concentration not given [a]. As for the experimental part:
(§7) The antibody (6RhCEB3(2)_10) obtained in the paragraph (6-2) or an anti-CD3 antibody hCE115HA/L0000 (heavy chain: SEQ ID NO: 42; light chain: SEQ ID NO: 66) was evaluated for its binding activity against soluble human IL-6R and human CD3e (hCD3e) using Octet RED384 (forteBIO). The binding evaluation was conducted using HBS-EP+Buffer (GE Healthcare Japan Corp.) as a buffer.
(§8) After binding of the antibody to Protein G Biosensors (forteBIO), soluble human IL-6R or human CD3e was allowed to interact with the antibody on the biosensor through contact therebetween for 120 seconds, and subsequently contacted with the buffer for 120 seconds to measure the antibody-antigen interaction. Then, the biosensor was regenerated through contact with 10 mmol/L glycine-HCl (pH 1.5). The measurement was conducted at 30° C.

Experiment [14] has as its target T1, soluble human IL-6R. Briefly: biolayer interferometry (Octet RED384), antibody on Protein G biosensor, soluble human IL-6R in solution, 120 s association and 120 s dissociation [a]. Here is the method: as §7, §8
The source holds these as a separate data set.

T3 sequence (Q9UIW2 other isoform, or with tags, fused parts or gaps): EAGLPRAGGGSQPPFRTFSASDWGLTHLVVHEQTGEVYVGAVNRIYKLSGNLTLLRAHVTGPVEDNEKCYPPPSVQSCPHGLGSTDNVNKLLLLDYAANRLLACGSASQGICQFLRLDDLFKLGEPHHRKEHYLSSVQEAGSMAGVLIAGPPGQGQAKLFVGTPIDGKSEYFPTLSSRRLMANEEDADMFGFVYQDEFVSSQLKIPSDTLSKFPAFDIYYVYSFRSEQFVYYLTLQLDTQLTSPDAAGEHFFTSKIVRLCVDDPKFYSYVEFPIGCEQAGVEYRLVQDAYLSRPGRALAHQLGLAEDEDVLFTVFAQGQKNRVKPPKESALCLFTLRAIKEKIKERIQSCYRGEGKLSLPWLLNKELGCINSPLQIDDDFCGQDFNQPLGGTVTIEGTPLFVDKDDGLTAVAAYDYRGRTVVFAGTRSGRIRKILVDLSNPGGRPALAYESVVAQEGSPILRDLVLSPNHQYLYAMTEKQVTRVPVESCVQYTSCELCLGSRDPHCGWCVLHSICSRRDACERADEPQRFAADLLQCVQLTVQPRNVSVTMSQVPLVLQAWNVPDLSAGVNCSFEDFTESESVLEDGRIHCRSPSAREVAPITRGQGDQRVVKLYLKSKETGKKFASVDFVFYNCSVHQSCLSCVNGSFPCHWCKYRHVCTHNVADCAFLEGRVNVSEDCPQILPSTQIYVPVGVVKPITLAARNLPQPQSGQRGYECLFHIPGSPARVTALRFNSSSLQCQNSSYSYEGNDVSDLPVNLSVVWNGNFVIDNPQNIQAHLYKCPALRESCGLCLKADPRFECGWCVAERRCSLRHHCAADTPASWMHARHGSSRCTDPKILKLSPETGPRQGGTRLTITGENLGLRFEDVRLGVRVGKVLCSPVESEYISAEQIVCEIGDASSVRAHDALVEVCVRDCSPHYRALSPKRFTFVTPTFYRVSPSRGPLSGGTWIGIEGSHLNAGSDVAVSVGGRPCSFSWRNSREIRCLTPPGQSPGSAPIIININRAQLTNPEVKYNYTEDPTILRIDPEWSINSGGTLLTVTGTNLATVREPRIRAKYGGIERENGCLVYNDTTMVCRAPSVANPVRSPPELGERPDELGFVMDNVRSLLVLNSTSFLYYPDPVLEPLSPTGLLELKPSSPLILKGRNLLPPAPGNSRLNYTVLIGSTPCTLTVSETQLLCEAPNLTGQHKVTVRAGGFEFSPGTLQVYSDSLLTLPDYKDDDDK
human CD3e (hCD3e) extracellular region with FLAG tag, sequence (P07766 other isoform, or with tags, fused parts or gaps): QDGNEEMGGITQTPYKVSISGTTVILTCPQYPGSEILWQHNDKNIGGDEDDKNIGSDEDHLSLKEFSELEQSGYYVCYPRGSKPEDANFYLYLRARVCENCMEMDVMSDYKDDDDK

B1: 6RNH-2_02 (antibody, human IgG1, kappa, V domains shown)
VH: QVQLVETGGGMVQPGGSLRLSCAASGFMFSTYAMSWVRQASGKGLEWVSLISGTGSVTKYADSVKGRFTISRDNSKNMVYLQMNNLGADDTAVYYCANSDYGDYARFDHWGQGTLVTVSS
VL: DIQMTQSPSSLSASVGDSVTITCQASQDISSYLNWYQQKPGKAPELLIYYGSELHSGVPSRFSGSGSGTDFTFTISSLEAEDAATYYCGQGNRLPYTFGQGTKVEIER
notes: IgG with the PF1 L chain, purified on Protein A
For B1, the binding result in the experiment with soluble human IL-6R [1] was “binds”.

B2: 6RNH-2_37 (antibody, human IgG1, kappa, V domains shown)
VH: QVQLQESGPGLVRPSQTLSLTCTVSGYSITSDHAWSWVRQPPGRGLEWIGYISYSGITTYNPSLKSRVTMLRDTSKNQFSLRLSSVTAADTAVYYCARSLARTTAMDYWGQGTLVTVSS
VL: DIQMTQSPSSLSASVGDSVTITCQASQDISSYLNWYQQKPGKAPELLIYYGSELHSGVPSRFSGSGSGTDFTFTISSLEAEDAATYYCGQGNRLPYTFGQGTKVEIER
notes: IgG with the PF1 L chain
Regarding B2, the binding result in the experiment with soluble human IL-6R [2] was “binds”.

B3: 6RNH-3(2)_32 (antibody, human IgG1, kappa, V domains shown)
VH: QVQLQESGPGLVKPSETLSLTCAVSGYSISHDHAWSWVRQPPGEGLEWIGHISYSGITNYNPHLQDRVTISRDTSKNQFSLKLSSVTAADTAVYYCARFLARITAHDHWGEGTLVTVSS
VL: DIQMTQSPSSLSASVGDSVTITCQASQDISSYLNWYQQKPGKAPELLIYYGSELHSGVPSRFSGSGSGTDFTFTISSLEAEDAATYYCGQGNRLPYTFGQGTKVEIER
notes: IgG with the PF1 L chain
For B3, the binding result in the experiment with soluble human IL-6R [3] was “binds”.

B4: 6RmIAB3(2)_02 (antibody, human IgG1, lambda, V domains shown)
VH: QVQLQESGPGLVKPSGTLSLTCAVSGGSISSSDWWSWVRQPPGKGLEWIGEIYHGGSTNYNPSLKSRVTISVDRSKNQFSLNLSSVTAADTAVYYCARAPRGSYRIDYWGQGTLVTVSS
VL: SYELTQPPSVSVSPGQSASITCSGDKLGDRFVTWYQQKPGQSPVLVMYQDNQRPSGIPERFSGSNSGNTATLTITGTPAMDEADYYCQTWDAGTGVVFGGGTKLTVLS
notes: IgG with the L chain of the anti-mouse IgA antibody mIANMIgL_095; Culture supernatant was recovered; no purification is described
Regarding B4, the binding result in the experiment with mouse IgA [4] was “no binding”; with soluble human IL-6R [5] it was “binds”.

B5: mIANMIgL_095 (antibody, human IgG1, lambda, V domains shown)
VH: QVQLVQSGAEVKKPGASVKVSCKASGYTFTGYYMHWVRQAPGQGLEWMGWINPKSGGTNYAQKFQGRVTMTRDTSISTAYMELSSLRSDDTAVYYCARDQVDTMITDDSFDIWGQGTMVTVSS
VL: SYELTQPPSVSVSPGQSASITCSGDKLGDRFVTWYQQKPGQSPVLVMYQDNQRPSGIPERFSGSNSGNTATLTITGTPAMDEADYYCQTWDAGTGVVFGGGTKLTVLS
notes: also called anti-mouse IgA antibody mIANMIgL_095
Consider B5, for which the binding result with soluble human IL-6R [6] is “no binding”.

B6: 6RmIAB3(2)_06 (antibody, human IgG1, lambda, V domains shown)
VH: QVQLVQSGAEVKKPGASVKVSCKASGYTFATSGISWVRQAPGQGLEWLGWISPYNSRTNSAQKLQGRVNMTTDTSTNTAYLELRSLTSDDTAVYYCARANGDYRNWFDPWGQGTLVTVSS
VL: SYELTQPPSVSVSPGQSASITCSGDKLGDRFVTWYQQKPGQSPVLVMYQDNQRPSGIPERFSGSNSGNTATLTITGTPAMDEADYYCQTWDAGTGVVFGGGTKLTVLS
notes: IgG with the L chain of the anti-mouse IgA antibody mIANMIgL_095; Culture supernatant was recovered
In the case of B6, the binding result with soluble human IL-6R [7] was “binds”; in the experiment with mouse IgA [8], “no binding”.

B7: 6RPAB3_03 (antibody, human IgG1, kappa, V domains shown)
VH: EVQLVESGGGLVQPGGSLRLSCATSGFTFSSYEMNWVRQAPGKGLEWVSYIDRSGSTIYYADSVKGRFTISRDNAKNSLYLQMNSLRAEDTAVYYCAGEWWQGDSWGQGTTVTVSS
VL: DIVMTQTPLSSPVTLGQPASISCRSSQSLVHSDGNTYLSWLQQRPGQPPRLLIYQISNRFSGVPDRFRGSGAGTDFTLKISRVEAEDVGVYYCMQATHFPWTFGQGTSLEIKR
On to B7, for which the binding result with soluble human plexin A1 [9] was “no binding”; with soluble human IL-6R [10], “binds”.

B8: hPANKB2-3#135 (antibody, human IgG1, kappa, V domains shown)
VH: EVQLVQSGAEVKKPGASVKVSCKASGYTFTSYGISWVRQAPGQGLEWMGWISAYNGNTNYAQKLQGRVTMTTDTSTSTAYMELRSLRSDDTAVYYCARGGRGGDAFDIWGQGTMVTVSS
VL: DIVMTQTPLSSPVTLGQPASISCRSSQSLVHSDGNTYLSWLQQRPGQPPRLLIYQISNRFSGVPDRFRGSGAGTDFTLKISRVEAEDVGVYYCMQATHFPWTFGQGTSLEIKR
For the molecule B8, the binding result in the experiment with soluble human plexin A1 [11] is listed as “binds”; with soluble human IL-6R [12], “no binding”.

B9: 6RhCEB3(2)_10 (antibody, human IgG1, kappa, V domains shown)
VH: QVQLVQSGAEVKKPGSSVKVSCKASGGTFSSYAISWVRQAPGQGLEWMGGIIPIFGTANYAQKFQGRVTITADESTSTAYMELSSLRSEDTAVYYCARDHYDILTGYPDPTYYYYGMDVWGQGTMVTVSS
VL: DIVMTQSPLSLPVTPGEPASISCRSSQSLVHSNRNTYLHWYQQKPGQAPRLLIYKVSNRFSGVPDRFSGSGSGTDFTLKISRVEAEDVGVYYCGQGTQVPYTFGQGTKLEIKR
notes: IgG with the L chain of the humanized anti-CD3 antibody CE115
On to B9, for which the values for the binding result (in [13]; with soluble human IL-6R [14]) were “no binding” and “binds”, respectively.
